This passage reports response results from PMC6913127, “Structures of MERS1, the 5′ processing enzyme of mitochondrial mRNAs in Trypanosoma brucei” (RNA, 2020).

B1: fluoresceinated MERS2 peptide F-SVSKQAVCLMERHLRRVPGARRNELKVALSKELKER [modified: fluorescein (F-) printed at the N-terminus; fluorescein (F-) printed at the N-terminus] [T. brucei] / T. brucei MERS1(37–395), his-tagged [Trypanosoma brucei … (parent complex)
chain 1: SVSKQAVCLMERHLRRVPGARRNELKVALSKELKER
chain 2: LVPRGSMDDALRGELASALDTEGHALPFDVHLQQPHSSGDGTAGDTSTIQLEKLSHPPARFDLLTNSFVYKWQTKAALARKVSGPMREWAAELKYRTGVHIELEPTYPERLSENAVKGSGSDDGDGTQWGAYETADDVDITVYLFGSERGIFNCHKLMEAAIQQDPVYVRLGIFRRLANSSEVEWLMLRRINRELRPPDIPPISLKLPGKWTLLYERYKEAAIRTLWEETGITVDASNVYPTGHLYQTVPQYYWRVPVRYFVAEVPSDIRVEGPQVVPLQYMRNWDARLLRQSPDPIDRAWAQLADPATGCAWMKASMIDQLQKPLRGDNYMAIRYTPPPYSNLQEVVGLGDGSITPSTGNGEDAS

Variants of B1 are the subject of this assay. In words: fluorescence polarization; value read at the highest MERS1 concentration point, about 13.3 µM (estimated from the x axis); parent: 53; read off a plot.
With chain 1 L29P, chain 1 E32P, the response was roughly 21 mP.
